In paper PMC8280134, “Broadly cross-reactive human antibodies that inhibit genogroup I and II noroviruses” (Nature Communications, 2021):

What was measured:
Assay in all cases: ELISA; indirect ELISA; VLP coated at 1 µg/mL on 384-well plates at 4 °C overnight, blocked with 5% nonfat dry milk in PBS with 0.05% Tween-20; mAb normalised for antigen-binding sites, from 500 nM with 11 serial dilutions; detection with anti-κ or -λ secondary antibodies
Settings in all cases: both partners purified
[1] = molecular target: T1, HuNoV GII.17 virus-like particle (Norovirus …, strain)
T1 construct: also called GII.17 VLP
T1 chain: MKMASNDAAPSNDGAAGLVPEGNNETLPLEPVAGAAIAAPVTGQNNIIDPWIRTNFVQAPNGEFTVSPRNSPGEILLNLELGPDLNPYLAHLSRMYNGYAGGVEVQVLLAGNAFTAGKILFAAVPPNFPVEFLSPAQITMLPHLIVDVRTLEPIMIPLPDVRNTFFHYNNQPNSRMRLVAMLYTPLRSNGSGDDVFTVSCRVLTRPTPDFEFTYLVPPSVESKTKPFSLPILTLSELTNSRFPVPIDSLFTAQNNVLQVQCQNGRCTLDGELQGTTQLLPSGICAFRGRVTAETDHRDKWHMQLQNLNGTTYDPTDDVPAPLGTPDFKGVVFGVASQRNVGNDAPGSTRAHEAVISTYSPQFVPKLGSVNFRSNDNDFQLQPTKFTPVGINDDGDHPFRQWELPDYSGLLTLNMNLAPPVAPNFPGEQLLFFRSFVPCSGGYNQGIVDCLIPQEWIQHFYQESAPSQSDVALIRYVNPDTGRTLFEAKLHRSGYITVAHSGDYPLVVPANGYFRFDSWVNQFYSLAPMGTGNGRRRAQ

[2] = molecular target: T2, HuNoV GII.3 virus-like particle (Norovirus Hu/GII.3/TCH-104/USA/2002 …, UniProt S4VLU9, strain)
T2 construct: also called GII.3 VLP

[3] = molecular target: T3, HuNoV GII.13 virus-like particle (Norovirus Hu/GII.13/VA173/2010/USA, strain)
T3 construct: also called GII.13 VLP
T3 chain: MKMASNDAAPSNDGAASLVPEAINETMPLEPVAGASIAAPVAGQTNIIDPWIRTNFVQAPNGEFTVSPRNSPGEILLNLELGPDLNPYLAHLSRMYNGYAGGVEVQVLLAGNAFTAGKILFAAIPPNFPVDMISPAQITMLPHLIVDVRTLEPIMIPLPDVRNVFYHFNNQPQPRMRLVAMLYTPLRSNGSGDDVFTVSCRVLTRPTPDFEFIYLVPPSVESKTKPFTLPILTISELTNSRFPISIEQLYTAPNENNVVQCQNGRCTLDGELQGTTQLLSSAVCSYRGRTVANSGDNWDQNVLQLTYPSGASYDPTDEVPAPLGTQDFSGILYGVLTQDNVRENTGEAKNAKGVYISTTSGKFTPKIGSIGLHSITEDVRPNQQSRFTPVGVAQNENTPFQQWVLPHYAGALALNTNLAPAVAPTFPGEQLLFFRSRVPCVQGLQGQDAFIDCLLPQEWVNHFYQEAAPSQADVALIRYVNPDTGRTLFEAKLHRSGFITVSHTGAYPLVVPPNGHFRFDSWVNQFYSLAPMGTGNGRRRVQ

[4] = molecular target: T4, HuNoV GII.6 virus-like particle (Norwalk-like virus …, UniProt Q918A7, strain)
T4 construct: also called GII.6 VLP

Measured: binding result

B1: NORO-320 IgA (hybridoma-secreted dimeric IgA) (antibody, V domains shown)
VH: QVQLVQSGPEVKKPGSSVKVSCKASGGTVSSYAISWVRQAPGQGLEWMGGIIPIFDTTNYAQKFQGRVTITADESTGTSDMELSSLRSEDTAVYYCARDRVPSYSPSRRFSTKGAMWGKYGMDVWGQGTLVTVSS
VL: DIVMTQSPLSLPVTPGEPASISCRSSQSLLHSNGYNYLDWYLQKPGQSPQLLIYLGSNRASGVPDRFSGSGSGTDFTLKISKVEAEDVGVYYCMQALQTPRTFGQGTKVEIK
notes: also called mAb NORO-320; Hyb dimeric IgA
binds: all assays above
